The supplement of paper PMC10567573

B1: FBF1 (parent)
chain: YQRPQDSEDMWGDEDFTFGAYQPT
B2: PRPH (parent)
chain: DEIEFLKKLHEEELRDLQVSVESQ

Variants of: B1
Assay: protein stability index of a GFP-peptide fusion (GPS, HEK-293T) (PSI 1-6); higher = more stable
Conditions: c terminus: a fixed tail appended
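Note: lentivirally expressed fusions sorted by FACS into six bins by GFP to DsRed ratio, PSI derived from sequencing read proportions per bin multiplied by bin number.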

Variant | protein stability index
YQRPQDSEDMWGDEDFTFGAYQMT | 2.26
YQRPQDSEDMWGDEDFTFGAYQQT | 3.06
YQRPQDSEDMWGDEDFTFGAYQET | 3.36
YQRPQDSEDMWGDEDFTFGAYQNT | 3.1
YQRPQDSEDMWGDEDFTFGAYQHT | 3.32
YQRPQDSEDMWGDEDFTFGAYQDT | 3.06
YQRPQDSEDMWGDEDFTFGAYQST | 2.61
YQRPQDSEDMWGDEDFTFGAYQLT | 2.87
YQRPQDSEDMWGDEDFTFGAYQAT | 2.47
YQRPQDSEDMWGDEDFTFGAYQVT | 2.4
YQRPQDSEDMWGDEDFTFGAYQFT | 2.74
YQRPQDSEDMWGDEDFTFGAYQKT | 2.68
YQRPQDSEDMWGDEDFTFGAYQCT | 2.96
YQRPQDSEDMWGDEDFTFGAYQRT | 2.67
YQRPQDSEDMWGDEDFTFGAYQIT | 2.64
YQRPQDSEDMWGDEDFTFGAYQTT | 2.87
YQRPQDSEDMWGDEDFTFGAYQGT | 3.19
YQRPQDSEDMWGDEDFTFGAYQYT | 2.85
YQRPQDSEDMWGDEDFTFGAYQWT | 2.19
YQRPQDSEDMWGDEDFTFGAYPPT | 3.19
YQRPQDSEDMWGDEDFTFGAYKPT | 1.95
YQRPQDSEDMWGDEDFTFGAYCPT | 2.6
YQRPQDSEDMWGDEDFTFGAYEPT | 3.19
YQRPQDSEDMWGDEDFTFGAYRPT | 2.65
YQRPQDSEDMWGDEDFTFGAYAPT | 2.77

Variant | protein stability index
YQRPQDSEDMWGDEDFTFGAYDPT | 3.06
YQRPQDSEDMWGDEDFTFGAYYPT | 3.22
YQRPQDSEDMWGDEDFTFGAYIPT | 2.45
YQRPQDSEDMWGDEDFTFGAYSPT | 3.03
YQRPQDSEDMWGDEDFTFGAYFPT | 2.38
YQRPQDSEDMWGDEDFTFGAYMPT | 2.22
YQRPQDSEDMWGDEDFTFGAYTPT | 2.28
YQRPQDSEDMWGDEDFTFGAYVPT | 2.37
YQRPQDSEDMWGDEDFTFGAYGPT | 2.86
YQRPQDSEDMWGDEDFTFGAYHPT | 2.43
YQRPQDSEDMWGDEDFTFGAYWPT | 1.94
YQRPQDSEDMWGDEDFTFGAYLPT | 2.77
YQRPQDSEDMWGDEDFTFGAYNPT | 2.57
YQRPQDSEDMWGDEDKTFGAYQPT | 2.87
YQRPQDSEDMWGDEDRTFGAYQPT | 2.73
YQRPQDSEDMWGDEDHTFGAYQPT | 3
YQRPQDSEDMWGDEDYTFGAYQPT | 2.83
YQRPQDSEDMWGDEDITFGAYQPT | 3.14
YQRPQDSEDMWGDEDWTFGAYQPT | 2.73
YQRPQDSEDMWGDEDGTFGAYQPT | 3.23
YQRPQDSEDMWGDEDMTFGAYQPT | 3.17
YQRPQDSEDMWGDEDATFGAYQPT | 2.9
YQRPQDSEDMWGDEDCTFGAYQPT | 2.85
YQRPQDSEDMWGDEDETFGAYQPT | 3.73
YQRPQDSEDMWGDEDSTFGAYQPT | 3.29

Variant | protein stability index
YQRPQDSEDMWGDEDQTFGAYQPT | 3.4
YQRPQDSEDMWGDEDLTFGAYQPT | 2.71
YQRPQDSEDMWGDEDPTFGAYQPT | 2.71
YQRPQDSEDMWGDEDNTFGAYQPT | 3.61
YQRPQDSEDMWGDEDTTFGAYQPT | 2.8
YQRPQDSEDMWGDEDVTFGAYQPT | 2.88
YQRPQDSEDMWGDEDDTFGAYQPT | 3.48
YQRPQDSEDMWGDEDFTFGEYQPT | 3.29
YQRPQDSEDMWGDEDFTFGQYQPT | 2.97
YQRPQDSEDMWGDEDFTFGKYQPT | 2.94
YQRPQDSEDMWGDEDFTFGCYQPT | 2.18
YQRPQDSEDMWGDEDFTFGIYQPT | 2.11
YQRPQDSEDMWGDEDFTFGNYQPT | 2.9
YQRPQDSEDMWGDEDFTFGVYQPT | 2.72
YQRPQDSEDMWGDEDFTFGSYQPT | 2.69
YQRPQDSEDMWGDEDFTFGFYQPT | 2.38
YQRPQDSEDMWGDEDFTFGMYQPT | 2.62
YQRPQDSEDMWGDEDFTFGPYQPT | 2.92
YQRPQDSEDMWGDEDFTFGTYQPT | 3.05
YQRPQDSEDMWGDEDFTFGRYQPT | 2.18
YQRPQDSEDMWGDEDFTFGWYQPT | 2.04
YQRPQDSEDMWGDEDFTFGDYQPT | 3.02
YQRPQDSEDMWGDEDFTFGHYQPT | 2.95
YQRPQDSEDMWGDEDFTFGYYQPT | 2.79
YQRPQDSEDMWGDEDFTFGLYQPT | 2.76

Variant | protein stability index
YQRPQDSEDMWGDEDFTFGGYQPT | 2.91
YQRPQDSEDMWGDEDFTFGAYQPM | 2.52
YQRPQDSEDMWGDEDFTFGAYQPV | 2.63
YQRPQDSEDMWGDEDFTFGAYQPN | 3.02
YQRPQDSEDMWGDEDFTFGAYQPD | 2.88
YQRPQDSEDMWGDEDFTFGAYQPY | 2.44
YQRPQDSEDMWGDEDFTFGAYQPR | 2.38
YQRPQDSEDMWGDEDFTFGAYQPG | 3.25
YQRPQDSEDMWGDEDFTFGAYQPH | 2.27
YQRPQDSEDMWGDEDFTFGAYQPQ | 2.68
YQRPQDSEDMWGDEDFTFGAYQPP | 3.17
YQRPQDSEDMWGDEDFTFGAYQPI | 2.24
YQRPQDSEDMWGDEDFTFGAYQPA | 2.79
YQRPQDSEDMWGDEDFTFGAYQPE | 2.58
YQRPQDSEDMWGDEDFTFGAYQPC | 2.83
YQRPQDSEDMWGDEDFTFGAYQPF | 2.29
YQRPQDSEDMWGDEDFTFGAYQPW | 1.99
YQRPQDSEDMWGDEDFTFGAYQPL | 2.23
YQRPQDSEDMWGDEDFTFGAYQPS | 2.67
YQRPQDSEDMWGDEDFTFGAYQPK | 3.02
YQRPQDSEDMWGDEDFTMGAYQPT | 3.25
YQRPQDSEDMWGDEDFTEGAYQPT | 3.62
YQRPQDSEDMWGDEDFTWGAYQPT | 2.53
YQRPQDSEDMWGDEDFTYGAYQPT | 3.02
YQRPQDSEDMWGDEDFTIGAYQPT | 3.06

Variant | protein stability index
YQRPQDSEDMWGDEDFTQGAYQPT | 3.35
YQRPQDSEDMWGDEDFTNGAYQPT | 3.93
YQRPQDSEDMWGDEDFTHGAYQPT | 3.04
YQRPQDSEDMWGDEDFTVGAYQPT | 3.8
YQRPQDSEDMWGDEDFTLGAYQPT | 2.65
YQRPQDSEDMWGDEDFTTGAYQPT | 3.77
YQRPQDSEDMWGDEDFTSGAYQPT | 3.98
YQRPQDSEDMWGDEDFTCGAYQPT | 3.19
YQRPQDSEDMWGDEDFTKGAYQPT | 3.6
YQRPQDSEDMWGDEDFTGGAYQPT | 3.6
YQRPQDSEDMWGDEDFTAGAYQPT | 3.43
YQRPQDSEDMWGDEDFTDGAYQPT | 3.9
YQRPQDSEDMWGDEDFTRGAYQPT | 3.61
YQRPQDSEDMWGDEDFTPGAYQPT | 3.62
YQRPQDSEDMWGDEDFNFGAYQPT | 3.04
YQRPQDSEDMWGDEDFWFGAYQPT | 1.84
YQRPQDSEDMWGDEDFPFGAYQPT | 2.93
YQRPQDSEDMWGDEDFAFGAYQPT | 3.46
YQRPQDSEDMWGDEDFRFGAYQPT | 2.68
YQRPQDSEDMWGDEDFCFGAYQPT | 2.65
YQRPQDSEDMWGDEDFQFGAYQPT | 3.44
YQRPQDSEDMWGDEDFYFGAYQPT | 2.1
YQRPQDSEDMWGDEDFEFGAYQPT | 3.04
YQRPQDSEDMWGDEDFDFGAYQPT | 3.37
YQRPQDSEDMWGDEDFKFGAYQPT | 2.68

Variant | protein stability index
YQRPQDSEDMWGDEDFVFGAYQPT | 3.07
YQRPQDSEDMWGDEDFLFGAYQPT | 2.31
YQRPQDSEDMWGDEDFSFGAYQPT | 2.65
YQRPQDSEDMWGDEDFFFGAYQPT | 2.53
YQRPQDSEDMWGDEDFGFGAYQPT | 3.01
YQRPQDSEDMWGDEDFMFGAYQPT | 2.59
YQRPQDSEDMWGDEDFIFGAYQPT | 2.36
YQRPQDSEDMWGDEDFHFGAYQPT | 2.86
YQRPQDSEDMWGDEDFTFYAYQPT | 2.35
YQRPQDSEDMWGDEDFTFMAYQPT | 2.88
YQRPQDSEDMWGDEDFTFAAYQPT | 2.59
YQRPQDSEDMWGDEDFTFIAYQPT | 2.64
YQRPQDSEDMWGDEDFTFWAYQPT | 1.84
YQRPQDSEDMWGDEDFTFDAYQPT | 3.49
YQRPQDSEDMWGDEDFTFCAYQPT | 2.53
YQRPQDSEDMWGDEDFTFVAYQPT | 2.8
YQRPQDSEDMWGDEDFTFHAYQPT | 2.67
YQRPQDSEDMWGDEDFTFNAYQPT | 3.1
YQRPQDSEDMWGDEDFTFEAYQPT | 3.76
YQRPQDSEDMWGDEDFTFLAYQPT | 2.33
YQRPQDSEDMWGDEDFTFFAYQPT | 2.56
YQRPQDSEDMWGDEDFTFPAYQPT | 2.77
YQRPQDSEDMWGDEDFTFQAYQPT | 2.78
YQRPQDSEDMWGDEDFTFTAYQPT | 2.6
YQRPQDSEDMWGDEDFTFKAYQPT | 2.51

Variant | protein stability index
YQRPQDSEDMWGDEDFTFRAYQPT | 2.47
YQRPQDSEDMWGDEDFTFSAYQPT | 3.18
YQRPQDSEDMWGDEVFTFGAYQPT | 1.86
YQRPQDSEDMWGDEYFTFGAYQPT | 2.23
YQRPQDSEDMWGDEWFTFGAYQPT | 1.78
YQRPQDSEDMWGDEDFTFGAIQPT | 3.16
YQRPQDSEDMWGDEDFTFGANQPT | 3.51
YQRPQDSEDMWGDEDFTFGAHQPT | 3.07
YQRPQDSEDMWGDEDFTFGARQPT | 3.06
YQRPQDSEDMWGDEDFTFGAVQPT | 2.92
YQRPQDSEDMWGDEDFTFGAWQPT | 2.04
YQRPQDSEDMWGDEDFTFGASQPT | 3.51
YQRPQDSEDMWGDEDFTFGAQQPT | 3.39
YQRPQDSEDMWGDEDFTFGALQPT | 3.35
YQRPQDSEDMWGDEDFTFGADQPT | 3.73
YQRPQDSEDMWGDEDFTFGAMQPT | 2.78
YQRPQDSEDMWGDEDFTFGAKQPT | 3.44
YQRPQDSEDMWGDEDFTFGAFQPT | 2.98
YQRPQDSEDMWGDEDFTFGATQPT | 3.1
YQRPQDSEDMWGDEDFTFGAEQPT | 3.75
YQRPQDSEDMWGDEDFTFGACQPT | 3.17
YQRPQDSEDMWGDEDFTFGAPQPT | 3.56
YQRPQDSEDMWGDEDFTFGAAQPT | 3.51
YQRPQDSEDMWGDEDFTFGAGQPT | 3.46

Variants of: B2
Assay: as above
Conditions: c terminus: a fixed tail appended

Variant | protein stability index
NEIEFLKKLHEEELRDLQVSVESQ | 4.78
FEIEFLKKLHEEELRDLQVSVESQ | 4.07
QEIEFLKKLHEEELRDLQVSVESQ | 3.77
MEIEFLKKLHEEELRDLQVSVESQ | 4.18
GEIEFLKKLHEEELRDLQVSVESQ | 4.53
HEIEFLKKLHEEELRDLQVSVESQ | 4.99
LEIEFLKKLHEEELRDLQVSVESQ | 4.63
KEIEFLKKLHEEELRDLQVSVESQ | 3.95
IEIEFLKKLHEEELRDLQVSVESQ | 3.46
EEIEFLKKLHEEELRDLQVSVESQ | 4.78
AEIEFLKKLHEEELRDLQVSVESQ | 4.22
CEIEFLKKLHEEELRDLQVSVESQ | 3.41
PEIEFLKKLHEEELRDLQVSVESQ | 4.53
REIEFLKKLHEEELRDLQVSVESQ | 4.01
